These results are taken from patent US20220409661A1 (published 2022).

In this experiment the target is T1, WT-1 (Wilms tumor protein 1) peptide on HLA-A*02:01 (human).
T1 peptide: RMFPNAPYL
As to the kind of experiment: multimer staining.

B1: TCR #10 (TCR, V domains shown)
Valpha: AQTVTQSQPEMSVQEAETVTLSCTYDTSESNYYLFWYKQPPSRQMILVIRQEAYKQQNATENRFSVNFQKAAKSFSLKISDSQLGDTAMYFCAFNPWENYGQNFVFGPGTRLSVLP
Vbeta: GAVVSQHPSWVICKSGTSVKIECRSLDFQATTMFWYRQFPKQSLMLMATSNEGSKATYEQGVEKDKFLINHASLTLSTLTVTSAHPEDSSFYICSARPHSLTDTQYFGPGTRLTVL
Consider B1, for which the binding result is given as “recognises”.

B2: TCR #6 (TCR, V domains shown)
Valpha: EDQVTQSPEALRLQEGESSSLNCSYTVSGLRGLFWYRQDPGKGPEFLFTLYSAGEEKEKERLKATLTKKESFLHITAPKPEDSATYLCAVQTMDGNQFYFGTGTSLTVIP
Vbeta: NAGVTQTPKFQVLKTGQSMTLQCAQDMNHEYMSWYRQDPGMGLRLIHYSVGAGITDQGEVPNGYNVSRSTTEDFPLRLLSAAPSQTSVYFCASSYSLWDLQETQYFGPGTRLLVL
As for B2, the binding result was “recognises”.
